Laboratory results as given in IntAct's records for PubMed 23918937.

B1: Meiotic spindle formation protein mei-1 (Caenorhabditis elegans), P34808 (parent)
chain: MNGDVQSVIRGYLERAQVAKTMSDAGRWNEAGDLLRQLMTDVKSCKISASNRDEHDARNTFLRALEANLKLVQQNVRDEDDLHEAMTRQSGSPEPPADPDVWSKPSPPLPSSSKFGATKKGVGAAGPRPREISKSTSSMSTNPADVKPANPTQGILPQNSAGDSFDASAYDAYIVQAVRGTMATNTENTMSLDDIIGMHDVKQVLHEAVTLPLLVPEFFQGLRSPWKAMVLAGPPGTGKTLIARAIASESSSTFFTVSSTDLSSKWRGDSEKIVRLLFELARFYAPSIIFIDEIDTLGGQRGNSGEHEASRRVKSEFLVQMDGSQNKFDSRRVFVLAATNIPWELDEALRRRFEKRIFIPLPDIDARKKLIEKSMEGTPKSDEINYDDLAARTEGFSGADVVSLCRTAAINVLRRYDTKSLRGGELTAAMESLKAELVRNIDFEAALQAVSPSAGPDTMLKCKEWCDSFGAM
partner: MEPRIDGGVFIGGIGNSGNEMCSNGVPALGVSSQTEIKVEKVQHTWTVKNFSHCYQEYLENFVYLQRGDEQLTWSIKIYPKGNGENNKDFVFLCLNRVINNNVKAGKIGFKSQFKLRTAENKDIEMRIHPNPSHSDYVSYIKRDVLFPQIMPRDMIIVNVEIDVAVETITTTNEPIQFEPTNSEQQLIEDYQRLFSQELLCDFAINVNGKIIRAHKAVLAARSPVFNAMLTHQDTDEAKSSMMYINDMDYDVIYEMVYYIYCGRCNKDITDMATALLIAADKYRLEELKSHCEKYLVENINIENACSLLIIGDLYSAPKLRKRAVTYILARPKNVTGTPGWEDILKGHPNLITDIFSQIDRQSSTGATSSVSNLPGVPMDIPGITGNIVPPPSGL
B2: Protein maternal effect lethal 26 (Caenorhabditis elegans), Q94420 (parent)
chain: B1 partner
partner: B1 chain
B3: Protein maternal effect lethal 26 (Caenorhabditis elegans), Q94420 (parent)
chain: B1 partner

Variants of: B1
Settings: with mel26_caeel mel-26, Q94420

Variant	effect of a mutation on the interaction
MNGDVQSVIRGYLERAQVAKTMSDAGRWNEAGDLLRQLMTDVKSCKISASNRDEHDARNTFLRALEANLKLVQQNVRDEDDLHEAMTRQSGAPEPPADPDVWSKPSPPLPSSSKFGATKKGVGAAGPRPREISKSTSSMSTNPADVKPANPTQGILPQNSAGDSFDASAYDAYIVQAVRGTMATNTENTMSLDDIIGMHDVKQVLHEAVTLPLLVPEFFQGLRSPWKAMVLAGPPGTGKTLIARAIASESSSTFFTVSSTDLSSKWRGDSEKIVRLLFELARFYAPSIIFIDEIDTLGGQRGNSGEHEASRRVKSEFLVQMDGSQNKFDSRRVFVLAATNIPWELDEALRRRFEKRIFIPLPDIDARKKLIEKSMEGTPKSDEINYDDLAARTEGFSGADVVSLCRTAAINVLRRYDTKSLRGGELTAAMESLKAELVRNIDFEAALQAVSPSAGPDTMLKCKEWCDSFGAM [S92A]	disrupting interaction strength

Variants of: B2
Settings: with ktna1_caeel mei-1, P34808

Variant	effect of a mutation on the interaction
MEPRIDGGVFIGGIGNSGNEMCSNGVPALGVSSQTEIKVEKVQHTWTVKNFSHCYQEYLENFVYLQRGDEQLTWSIKIYPKGNGENNKDFVFLYLNRVINNNVKAGKIGFKSQFKLRTAENKDIEMRIHPNPSHSDYVSYIKRDVLFPQIMPRDMIIVNVEIDVAVETITTTNEPIQFEPTNSEQQLIEDYQRLFSQELLCDFAINVNGKIIRAHKAVLAARSPVFNAMLTHQDTDEAKSSMMYINDMDYDVIYEMVYYIYCGRCNKDITDMATALLIAADKYRLEELKSHCEKYLVENINIENACSLLIIGDLYSAPKLRKRAVTYILARPKNVTGTPGWEDILKGHPNLITDIFSQIDRQSSTGATSSVSNLPGVPMDIPGITGNIVPPPSGL [C94Y]	disrupting interaction strength

Variants of: B3
Settings: with pp4r1_caeel ppfr-1, G5ECH5
Sequence of pp4r1_caeel ppfr-1, G5ECH5 (G5ECH5 whole entry): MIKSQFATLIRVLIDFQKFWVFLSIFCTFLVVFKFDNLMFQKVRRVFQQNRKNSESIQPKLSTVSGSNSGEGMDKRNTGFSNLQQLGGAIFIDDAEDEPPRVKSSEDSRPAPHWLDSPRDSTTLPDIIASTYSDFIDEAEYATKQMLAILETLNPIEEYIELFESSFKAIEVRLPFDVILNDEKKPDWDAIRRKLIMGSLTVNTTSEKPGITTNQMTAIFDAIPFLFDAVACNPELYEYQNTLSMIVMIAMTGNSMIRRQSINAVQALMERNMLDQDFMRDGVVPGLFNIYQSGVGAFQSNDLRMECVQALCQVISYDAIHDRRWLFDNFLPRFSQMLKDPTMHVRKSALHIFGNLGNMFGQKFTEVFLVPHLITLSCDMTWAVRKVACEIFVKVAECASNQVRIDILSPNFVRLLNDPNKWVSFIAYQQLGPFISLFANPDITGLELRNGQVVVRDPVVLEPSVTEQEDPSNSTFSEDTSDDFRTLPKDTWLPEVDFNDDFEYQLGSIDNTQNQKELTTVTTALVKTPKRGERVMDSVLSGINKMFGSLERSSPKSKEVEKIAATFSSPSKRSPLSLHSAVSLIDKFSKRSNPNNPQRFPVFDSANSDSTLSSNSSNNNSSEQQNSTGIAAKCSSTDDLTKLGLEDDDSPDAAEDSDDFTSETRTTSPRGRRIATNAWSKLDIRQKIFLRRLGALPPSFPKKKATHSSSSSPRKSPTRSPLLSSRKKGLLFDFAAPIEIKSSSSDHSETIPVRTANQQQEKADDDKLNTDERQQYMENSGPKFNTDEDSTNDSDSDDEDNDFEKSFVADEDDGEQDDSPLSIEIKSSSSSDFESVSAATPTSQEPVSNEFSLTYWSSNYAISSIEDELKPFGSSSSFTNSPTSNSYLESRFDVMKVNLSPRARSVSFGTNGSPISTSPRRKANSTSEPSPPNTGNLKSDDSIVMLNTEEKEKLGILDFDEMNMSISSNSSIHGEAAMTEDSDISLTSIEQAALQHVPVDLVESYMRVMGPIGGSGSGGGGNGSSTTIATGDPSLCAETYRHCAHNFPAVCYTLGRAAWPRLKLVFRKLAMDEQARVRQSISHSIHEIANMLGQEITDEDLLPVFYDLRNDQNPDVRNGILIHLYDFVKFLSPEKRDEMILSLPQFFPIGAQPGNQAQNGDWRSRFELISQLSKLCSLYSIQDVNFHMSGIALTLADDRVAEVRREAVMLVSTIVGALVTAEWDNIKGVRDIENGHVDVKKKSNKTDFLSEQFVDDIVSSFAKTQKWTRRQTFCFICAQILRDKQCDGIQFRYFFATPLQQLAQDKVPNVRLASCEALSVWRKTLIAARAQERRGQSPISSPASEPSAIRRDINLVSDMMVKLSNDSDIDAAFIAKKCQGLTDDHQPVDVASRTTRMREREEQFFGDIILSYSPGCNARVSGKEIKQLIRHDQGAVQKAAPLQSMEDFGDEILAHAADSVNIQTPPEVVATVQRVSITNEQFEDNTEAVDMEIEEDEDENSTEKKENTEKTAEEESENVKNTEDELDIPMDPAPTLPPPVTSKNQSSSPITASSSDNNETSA

Variant	effect of a mutation on the interaction
MEPRIDGGVFIGGIGNSGNEMCSNGVPALGVSSQTEIKVEKVQHTWTVKNFSHCYQEYLENFVYLQRGDEQLTWSIKIYPKGNGENNKDFVFLYLNRVINNNVKAGKIGFKSQFKLRTAENKDIEMRIHPNPSHSDYVSYIKRDVLFPQIMPRDMIIVNVEIDVAVETITTTNEPIQFEPTNSEQQLIEDYQRLFSQELLCDFAINVNGKIIRAHKAVLAARSPVFNAMLTHQDTDEAKSSMMYINDMDYDVIYEMVYYIYCGRCNKDITDMATALLIAADKYRLEELKSHCEKYLVENINIENACSLLIIGDLYSAPKLRKRAVTYILARPKNVTGTPGWEDILKGHPNLITDIFSQIDRQSSTGATSSVSNLPGVPMDIPGITGNIVPPPSGL [C94Y]	disrupting interaction strength
